This note sets out measurements from article PMC11749891 (Nature structural & molecular biology, 2022).

Broadly, the stoichiometry N is a count of units in the complex or per binding partner.

Experiment [1] addresses T1, Recombinant GFP-tagged Sov core NTD (aa 14–90), NTD Δ-SIMs (D. melanogaster, UniProt Q9W3W6 14-90).
T1 sequence (looked up): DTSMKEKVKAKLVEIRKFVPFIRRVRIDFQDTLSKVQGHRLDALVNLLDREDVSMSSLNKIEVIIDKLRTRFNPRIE
As to the kind of experiment: pull-down.

Experiment [2] concerns the target T2, C-terminal His tagged Sov NTD (aa 14–90) (D. melanogaster, UniProt Q9W3W6 14-90).
T2 sequence (looked up): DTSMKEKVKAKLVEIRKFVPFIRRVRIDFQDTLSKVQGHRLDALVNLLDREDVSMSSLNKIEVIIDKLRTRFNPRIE
As to the kind of experiment: ITC.

* marks the point of attachment. Biotin = O=C1N[C@H]2[C@H](CS[C@H]2CCCCC(=O)*)N1; Ahx = NCCCCCC(=O)O

B1: Panx LxxLL peptide (aa 82–108), wildtype, biotinylated (peptide, UniProt Q9W2H9 82-108, looked up)
peptide: {Biotin-Ahx}-KMEPKIKEDADNAMLDSLLADPFENNS-NH2
SMILES: CC[C@H](C)[C@H](NC(=O)[C@H](CCCCN)NC(=O)[C@@H]1CCCN1C(=O)[C@H](CCC(=O)O)NC(=O)[C@H](CCSC)NC(=O)[C@H](CCCCN)NC(=O)CCCCCNC(=O)CCCC[C@@H]1SC[C@@H]2NC(=O)N[C@@H]21)C(=O)N[C@@H](CCCCN)C(=O)N[C@@H](CCC(=O)O)C(=O)N[C@@H](CC(=O)O)C(=O)N[C@@H](C)C(=O)N[C@@H](CC(=O)O)C(=O)N[C@@H](CC(N)=O)C(=O)N[C@@H](C)C(=O)N[C@@H](CCSC)C(=O)N[C@@H](CC(C)C)C(=O)N[C@@H](CC(=O)O)C(=O)N[C@@H](CO)C(=O)N[C@@H](CC(C)C)C(=O)N[C@@H](CC(C)C)C(=O)N[C@@H](C)C(=O)N[C@@H](CC(=O)O)C(=O)N1CCC[C@H]1C(=O)N[C@@H](Cc1ccccc1)C(=O)N[C@@H](CCC(=O)O)C(=O)N[C@@H](CC(N)=O)C(=O)N[C@@H](CC(N)=O)C(=O)N[C@@H](CO)C(N)=O
As for B1, in experiment [1], the binding result is reported as “binds”.
KMEPKIKEDADNAMLDSLLADPFENNS (peptide, UniProt Q9W2H9 82-108, looked up) [His-SUMO tagged Panx LxxLL peptide (aa 82–108), wildtype]: the “stoichiometry N” value in experiment [2] turned out to be 1.05 ± 0.03.
